Test results: patent US20260250318A1, “COMPOSITIONS AND METHODS FOR CROSSING THE BLOOD BRAIN BARRIER” (VOYAGER THERAPEUTICS, INC., priority 2022, published 2026)
Where a chain is given by its changes, count along the chain named. Like-named read-outs stand apart in the source and are kept apart here.

B1: TTM-001: AAV9 capsid variant comprising SPHSKA (SEQ ID NO: 941) in loop IV (protein)
chain 1: MAADGYLPDWLEDNLSEGIREWWALKPGAPQPKANQQHQDNARGLVLPGYKYLGPGNGLDKGEPVNAADAAALEHDKAYDQQLKAGDNPYLKYNHADAEFQERLKEDTSFGGNLGRAVFQAKKRLLEPLGLVEEAAKTAPGKKRPVEQSPQEPDSSAGIGKSGAQPAKKRLNFGQTGDTESVPDPQPIGEPPAAPSGVGSLTMASGGGAPVADNNEGADGVGSSSGNWHCDSQWLGDRVITTSTRTWALPTYNNHLYKQISNSTSGGSSNDNAYFGYSTPWGYFDFNRFHCHFSPRDWQRLINNNWGFRPKRLNFKLFNIQVKEVTDNNGVKTIANNLTSTVQVFTDSDYQLPYVLGSAHEGCLPPFPADVFMIPQYGYLTLNDGSQAVGRSSFYCLEYFPSQMLRTGNNFQFSYEFENVPFHSSYAHSQSLDRLMNPLIDQYLYYLSKTINGSGSPHSKAQNQQTLKFSVAGPSNMAVQGRNYIPGPSYRQQRVSTTVTQNNNSEFAWPGASSWALNGRNSLMNPGPAMASHKEGEDRFFPLSGSLIFGKQGTGRDNVDADKVMITNEEEIKTTNPVATESYGQVATNHQSAQAQAQTGWVQNQGILPGMVWQDRDVYLQGPIWAKIPHTDGNFHPSPLMGGFGMKHPPPQILIKNTPVPADPPTAFNKDKLNSFITQYSTGQVSVEIEWELQKENSKRWNPEIQYTSNYYKSNNVEFAVNTEGVYSEPRPIGTRYLTRNL
chain 2: GSGSPHSKAQNQQT
B2: TTM-002: AAV9 capsid variant comprising HDSPHK (SEQ ID NO: 2) in loop IV (protein)
chain 1: B1 chain 1 with S454H, G455D, S459K, K460S, A461G
chain 2: GHDSPHKSGQNQQT

Tests used:
[1] = test system: N-linked galactose on HeLa cells; assay: Transduction of HeLa cells after neuraminidase treatment (Luc2 activity); assay type: cell-based, human
Description: Primary glycan receptors have been identified for various AAV serotypes, including AAV9 which binds N-linked galactose. In order to investigate the ability of TTM-001 and TTM-002 AAV9 variants to retain this natural glycan binding, HeLa cells were treated with increasing concentrations of Neuraminidase ([…]), which cleaves N-sialic acid and exposes N-galactose. The treated cells were then transduced with AAV particles comprising the TTM-001 capsid variant (AAV_TTM-001), the TTM-002 capsid variant (AAV_TTM-002), or an AAV9 control (AAV_AAV9cntl), transduction was measured by quantification of Luc2 activity (RLU), and data was normalized relative to the no neuraminidase control.

[2] = biological target: T1, AAVR (Homo sapiens, UniProt Q8IZA0); assay type: cell-based; conditions: for Luciferase Activity (fold change relative to pCMV6 transfected cells) / Luciferase Activity (RLU): AAVR transfected cells; for Fold change in luciferase activity relative to the pCMV6 control cells: Table 35, Receptor AAVR; for Luciferase Activity (RLU): Table 30
T1 construct: expressed in transfected cells; host or cells: HEK 293T
T1 sequence (Q8IZA0 whole entry, looked up): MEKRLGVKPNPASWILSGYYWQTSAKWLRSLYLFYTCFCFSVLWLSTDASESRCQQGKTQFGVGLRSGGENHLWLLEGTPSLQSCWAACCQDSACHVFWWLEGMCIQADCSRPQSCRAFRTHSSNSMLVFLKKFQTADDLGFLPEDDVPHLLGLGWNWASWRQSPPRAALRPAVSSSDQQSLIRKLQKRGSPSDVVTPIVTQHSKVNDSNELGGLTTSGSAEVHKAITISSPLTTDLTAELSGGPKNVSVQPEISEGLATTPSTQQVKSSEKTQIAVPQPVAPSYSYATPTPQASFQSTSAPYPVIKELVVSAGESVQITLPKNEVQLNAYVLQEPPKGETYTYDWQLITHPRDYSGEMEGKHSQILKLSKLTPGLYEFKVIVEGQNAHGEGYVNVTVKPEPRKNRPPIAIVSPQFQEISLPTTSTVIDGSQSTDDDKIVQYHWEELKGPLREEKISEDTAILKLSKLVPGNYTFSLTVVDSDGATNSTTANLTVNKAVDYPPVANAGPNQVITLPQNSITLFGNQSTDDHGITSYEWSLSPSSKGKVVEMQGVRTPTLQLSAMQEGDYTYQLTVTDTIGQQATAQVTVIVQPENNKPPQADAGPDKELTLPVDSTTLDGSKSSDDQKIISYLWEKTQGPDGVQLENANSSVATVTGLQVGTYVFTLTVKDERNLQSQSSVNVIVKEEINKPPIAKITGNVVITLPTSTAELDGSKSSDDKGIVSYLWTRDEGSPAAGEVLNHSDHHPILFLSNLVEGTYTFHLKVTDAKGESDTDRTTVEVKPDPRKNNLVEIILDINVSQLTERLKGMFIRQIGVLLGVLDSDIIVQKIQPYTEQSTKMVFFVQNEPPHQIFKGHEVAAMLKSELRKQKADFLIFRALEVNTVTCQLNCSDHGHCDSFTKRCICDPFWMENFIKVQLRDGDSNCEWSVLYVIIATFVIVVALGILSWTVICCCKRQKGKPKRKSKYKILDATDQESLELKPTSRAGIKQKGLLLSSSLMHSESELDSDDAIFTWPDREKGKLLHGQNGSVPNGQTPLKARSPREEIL
Description: Briefly, a transduction assay was performed in that HEK 293T cells were transfected via calcium phosphate transfection with a plasmid expressing ALPL, an AAVR positive control, or a pCMV6 negative control (250 ng or 500 ng of plasmid). AAVR is a universal AAV entry factor involved in AAV transduction. […] At 24-hours post-transduction, GFP expression and luciferase activity were measured to quantify and observe AAV cellular transduction. […] The TTM-002, TTM-006, TTM-018, and TTM-019 capsid variants all comprised the SPH motif immediately subsequent to position 455, numbered relative to SEQ ID NO: 138 and a positive residue in one of the next three residues subsequent to the SPH motif.

[3] = biological target: T2, ALPL (Homo sapiens, UniProt P05186); assay type: cell-based; design: expressed in transfected cells; host or cells: HEK 293T; conditions: viral genomes, 2 or 3 hours post-incubation, relative to pCMV6
T2 sequence (P05186 18-501): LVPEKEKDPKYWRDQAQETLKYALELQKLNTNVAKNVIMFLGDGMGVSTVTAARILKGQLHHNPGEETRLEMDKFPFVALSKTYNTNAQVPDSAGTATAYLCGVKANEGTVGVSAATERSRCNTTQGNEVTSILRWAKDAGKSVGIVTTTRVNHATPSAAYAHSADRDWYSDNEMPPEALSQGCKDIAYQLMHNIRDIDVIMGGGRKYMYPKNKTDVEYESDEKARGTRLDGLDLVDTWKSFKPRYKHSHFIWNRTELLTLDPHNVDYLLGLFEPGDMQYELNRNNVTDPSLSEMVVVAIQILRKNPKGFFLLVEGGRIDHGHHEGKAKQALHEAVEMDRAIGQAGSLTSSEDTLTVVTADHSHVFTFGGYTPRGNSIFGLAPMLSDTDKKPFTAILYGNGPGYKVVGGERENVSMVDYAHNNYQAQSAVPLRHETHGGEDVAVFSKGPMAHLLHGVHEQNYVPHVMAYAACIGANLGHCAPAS
Description: Binding and internalization of AAV capsid variants comprising the TTM-001 capsid variant, the TTM-002 capsid variant, or the AAV9 control capsid was also investigated in cells engineered to express ALPL. HEK 293T cells were transfected via calcium phosphate transfection with a plasmid expressing ALPL, an AAVR positive control, or a pCMV6 negative control. At 24 hours post-transfection, the HEK 293T cells expressing the ALPL receptor were incubated with an AAV particle comprising the TTM-001 capsid variant, the TTM-002 capsid variant, or an AAV9 control capsid protein, expressing a GFP payload. At 2 or 3-hours post-incubation, cells were washed to remove unbound AAV particles and DNA was extracted to quantify viral genomes.

Molecule	fold change in Luc2 activity (RLU) relative to the no neuraminidase control ([1]; Neuraminidase 5 mU/mL) [fold]	fold change in Luc2 activity (RLU) relative to the no neuraminidase control ([1]; Neuraminidase 50 mU/mL) [fold]	fold change in Luc2 activity (RLU) relative to the no neuraminidase control ([1]; Neuraminidase 500 mU/mL) [fold]	Luciferase Activity (fold change relative to pCMV6 transfected cells) ([2]; Table 27) [fold]	Luciferase Activity (fold change relative to pCMV6 transfected cells) ([2]; Table 28) [fold]	Fold change in luciferase activity relative to the pCMV6 control cells [2] [fold]	fold increase in binding/internalization in cells expressing ALPL [3]	Luciferase Activity (RLU) [2]	transduction in cells expressing the AAVR control ([2]; compared with ALPL expression)
AAV9: wild-type AAV9 control capsid [reference compound]	2.7	6.2	11.1	4.3	14	4.9	unaffected	–	–
B1	5.2	6.7	8.2	2.4	–	–	3 fold	13,981 RLU	–
B2	9.6	12.5	13.9	4.1	–	7.3	6 fold	11,261 RLU	did not result in the same increase in transduction
